Test [1] concerns the target T1, CD59 purified from human erythrocytes (human, UniProt P13987 26-102).
T1 construct: mature; Native protein purified from red cells; coated on plates for ELISA, or incubated with guinea pig erythrocytes (GPE-CD59) for the reactive lysis test
T1 sequence (looked up): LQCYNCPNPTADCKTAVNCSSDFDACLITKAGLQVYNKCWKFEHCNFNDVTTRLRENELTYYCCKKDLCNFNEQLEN
In words: ELISA with phage and soluble scFv on coated purified antigen. The protocol:
(§1) Microtiter plates were coated with 100 μl of the various CRPs (10 μg/ml) followed by 100 μl of phage suspension in MPBS. Anti-M13 peroxidase conjugated mAb was used as a secondary antibody. Data represent mean values±SD of three different experiments.
(§2) The specificity of the selected clones was assessed by ELISA using both phage and soluble scFv (FIG. 1).

The target in test [2] is T2, CD55 purified from human erythrocytes (human, UniProt P08174 35-353).
T2 construct: mature; Native protein purified from red cells; coated on plates for ELISA, or incubated with antibody-sensitised sheep erythrocytes (EA-CD55) for the hemolytic assay; also called decay-accelerating factor; DAF
T2 sequence (looked up): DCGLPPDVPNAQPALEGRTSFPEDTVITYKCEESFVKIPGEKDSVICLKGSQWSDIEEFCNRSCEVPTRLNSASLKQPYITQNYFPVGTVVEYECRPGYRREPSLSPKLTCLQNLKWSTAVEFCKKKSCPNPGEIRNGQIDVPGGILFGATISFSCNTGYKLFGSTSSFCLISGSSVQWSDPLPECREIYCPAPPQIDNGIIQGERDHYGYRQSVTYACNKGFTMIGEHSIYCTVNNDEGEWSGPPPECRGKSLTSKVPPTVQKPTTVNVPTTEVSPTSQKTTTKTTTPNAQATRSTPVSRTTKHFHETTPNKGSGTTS
The description is as above. The protocol:
as §1, §2

This is an account of results in US20090053225A1 (QUARK PHARMACEUTICALS, published 2009).

B1: scFv TS-55 (anti-CD55 clone) (scFv)
scFv: SSELTQEPAVSVALGQTVSITCQGDSLRSYYASWYQQKPGQAPIPVIYGKNNRPSGIPDRFSGSSSGNTASLTITGAQAEDEADYYCSSRDNRGTHRWVFGGGTKLTVLSGGSTITSYNVYYTKLSSSGTQVNLRESGGGLVQPGRSLRLSCAASGFTFDDYAMHWVRQAPGKGLEWVSGISWNSGSIGYADSVKGRFTISRDNAKNSLYLQMNSLRAEDTALYYCAKDRSDRGRLLDYWGLGTLVTVS
notes: also called Clone anti CD 55; anti-CD55 scFv
In the case of B1, in test [1], the binding result was “no binding”.

B2: scFv TS-59 (anti-CD59 clone) (scFv)
scFv: DIVLTQSPDSLAVSLGERATINCKSSQSVLYSSNNKNYLAWYQQKPGQPPKLLIYWASTRESGVPDRFSGSGSGTDFTPAISSLQAEDVAVYYCQQYYSTPQLTFGGGTKVDIKSGGSTITSYNVYYTKLSSSGTQVQLQQSGGGVVQPGRSLGLSCAASGFTFSSYGMNWVRQAPGKGLEWVSYISSSSSTIYYADSVKGRFTISRDNSKNTLYLQMNSLRAEDTAVYYCARGPGMDVWGQGTTVTVS
notes: also called Clone anti CD 59; anti-CD59 scFv
Consider B2, for which, in test [2], the binding result is listed as “no binding”.
